Blank lines part the entries; values can stand above or below the binder they belong to.
Legend:
Experiment in all cases: holdup assay
Design in all cases: key: below the threshold = too weak to quantify, mostly under pKd 3.1 to 4
MPDZ_12, O75970 = target: T1, MPDZ_12, O75970
T1 sequence (O75970 1857-1958, limits assumed, looked up): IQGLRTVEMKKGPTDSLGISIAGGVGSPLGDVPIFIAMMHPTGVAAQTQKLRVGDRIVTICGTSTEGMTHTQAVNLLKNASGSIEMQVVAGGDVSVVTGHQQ

GRIP1_7, Q9Y3R0 = target: T2, GRIP1_7, Q9Y3R0
T2 sequence (Q9Y3R0 999-1096, limits assumed, looked up): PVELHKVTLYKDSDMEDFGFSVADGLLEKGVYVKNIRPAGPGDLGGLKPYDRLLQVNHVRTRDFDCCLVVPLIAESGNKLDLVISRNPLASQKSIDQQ

NHERF3_3, Q5T2W1 = target: T3, NHERF3_3, Q5T2W1
T3 sequence (Q5T2W1 238-333, limits assumed, looked up): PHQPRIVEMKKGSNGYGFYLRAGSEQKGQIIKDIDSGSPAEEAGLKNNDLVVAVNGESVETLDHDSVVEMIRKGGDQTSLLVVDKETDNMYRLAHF

MAGI1_1, Q96QZ7 = target: MAGI1_1, Q96QZ7
ARHGEF12, Q9NZN5-2 = target: ARHGEF12, Q9NZN5-2
GRIP2_4, Q9C0E4 = target: GRIP2_4, Q9C0E4
GRID2IP_1, A4D2P6 = target: GRID2IP_1, A4D2P6
GRIP1_3, Q9Y3R0 = target: T4, GRIP1_3, Q9Y3R0
T4 sequence (Q9Y3R0 247-346, limits assumed, looked up): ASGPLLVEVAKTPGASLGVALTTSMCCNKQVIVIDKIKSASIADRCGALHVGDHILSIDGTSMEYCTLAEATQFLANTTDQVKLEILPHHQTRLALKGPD

MAGI2_2, Q86UL8 = target: MAGI2_2, Q86UL8
GRID2IP_2, A4D2P6 = target: GRID2IP_2, A4D2P6
GRIP1_2, Q9Y3R0 = target: T5, GRIP1_2, Q9Y3R0
T5 sequence (Q9Y3R0 145-248, limits assumed, looked up): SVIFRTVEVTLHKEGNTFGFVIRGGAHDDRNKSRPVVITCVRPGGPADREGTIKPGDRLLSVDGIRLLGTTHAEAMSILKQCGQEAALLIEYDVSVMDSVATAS

PDLIM1, O00151 = target: PDLIM1, O00151
CARD11, Q9BXL7 = target: T6, CARD11, Q9BXL7
T6 sequence (Q9BXL7 662-765, limits assumed, looked up): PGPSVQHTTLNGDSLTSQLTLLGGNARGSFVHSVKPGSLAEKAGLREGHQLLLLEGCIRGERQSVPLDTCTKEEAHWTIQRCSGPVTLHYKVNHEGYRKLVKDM

LNX2_3, Q8N448 = target: T7, LNX2_3, Q8N448
T7 sequence (Q8N448 463-564, limits assumed, looked up): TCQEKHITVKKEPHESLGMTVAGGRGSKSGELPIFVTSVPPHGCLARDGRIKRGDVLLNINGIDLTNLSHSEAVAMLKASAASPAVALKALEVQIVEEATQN

MAGI2_5, Q86UL8 = target: MAGI2_5, Q86UL8
LIMK2, P53671 = target: LIMK2, P53671
SIPA1L2, Q9P2F8 = target: T8, SIPA1L2, Q9P2F8
T8 sequence (Q9P2F8 945-1036, limits assumed, looked up): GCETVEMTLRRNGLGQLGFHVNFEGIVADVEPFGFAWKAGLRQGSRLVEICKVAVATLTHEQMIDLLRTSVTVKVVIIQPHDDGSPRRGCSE

IL16_1, Q14005 = target: IL16_1, Q14005
CASK, O14936 = target: CASK, O14936
FRMPD2_2, Q68DX3 = target: FRMPD2_2, Q68DX3
LNX1_2, Q8TBB1 = target: LNX1_2, Q8TBB1
Inadl_9, Q8NI35 = target: Inadl_9, Q8NI35
DFNB31_1, Q9P202 = target: T9, DFNB31_1, Q9P202
T9 sequence (Q9P202 135-233, limits assumed, looked up): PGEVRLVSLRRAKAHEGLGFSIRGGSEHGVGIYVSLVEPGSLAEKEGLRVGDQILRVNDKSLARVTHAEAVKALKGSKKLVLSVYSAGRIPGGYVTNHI

NHERF4_4, Q86UT5 = target: NHERF4_4, Q86UT5
RADIL, Q96JH8 = target: T10, RADIL, Q96JH8
T10 sequence (Q96JH8 971-1071, limits assumed, looked up): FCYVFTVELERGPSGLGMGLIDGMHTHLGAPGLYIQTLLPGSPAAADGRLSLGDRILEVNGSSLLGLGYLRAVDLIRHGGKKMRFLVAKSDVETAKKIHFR

APBA2_2, Q99767 = target: T11, APBA2_2, Q99767
T11 sequence (Q99767 654-744, limits assumed, looked up): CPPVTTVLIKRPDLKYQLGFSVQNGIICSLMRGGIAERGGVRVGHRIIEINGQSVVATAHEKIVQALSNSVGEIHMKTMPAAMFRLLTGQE

Inadl_6, Q8NI35 = target: Inadl_6, Q8NI35
[1] = plain residues with an end cap or a label only (N-terminal biotin on a linker: ahx)
[2] = plain residues with an end cap or a label only (N-terminal biotin on a linker: ttds)

GRIP2_4, Q9C0E4, sequence (Q9C0E4 446-548): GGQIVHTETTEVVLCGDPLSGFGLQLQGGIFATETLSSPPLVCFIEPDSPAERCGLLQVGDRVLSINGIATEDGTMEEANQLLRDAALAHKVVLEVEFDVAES
MAGI1_1, Q96QZ7, sequence (Q96QZ7 1-106): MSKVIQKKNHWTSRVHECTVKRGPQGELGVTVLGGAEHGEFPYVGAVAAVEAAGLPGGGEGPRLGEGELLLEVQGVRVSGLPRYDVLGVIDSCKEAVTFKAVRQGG
NHERF4_4, Q86UT5, sequence (Q86UT5 464-550): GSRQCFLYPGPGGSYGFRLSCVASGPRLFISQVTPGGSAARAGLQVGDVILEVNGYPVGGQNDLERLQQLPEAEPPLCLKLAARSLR
IL16_1, Q14005, sequence (Q14005 210-306): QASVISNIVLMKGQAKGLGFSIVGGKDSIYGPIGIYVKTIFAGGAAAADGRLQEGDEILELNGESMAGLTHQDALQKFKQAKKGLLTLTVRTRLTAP
LIMK2, P53671, sequence (P53671 143-248): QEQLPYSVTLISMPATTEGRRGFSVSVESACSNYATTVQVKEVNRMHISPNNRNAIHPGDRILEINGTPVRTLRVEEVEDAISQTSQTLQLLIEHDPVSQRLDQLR
GRID2IP_2, A4D2P6, sequence (A4D2P6 272-370): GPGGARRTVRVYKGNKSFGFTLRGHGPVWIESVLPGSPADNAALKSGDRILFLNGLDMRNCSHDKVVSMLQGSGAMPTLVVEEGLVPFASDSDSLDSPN
MAGI2_2, Q86UL8, sequence (Q86UL8 410-522): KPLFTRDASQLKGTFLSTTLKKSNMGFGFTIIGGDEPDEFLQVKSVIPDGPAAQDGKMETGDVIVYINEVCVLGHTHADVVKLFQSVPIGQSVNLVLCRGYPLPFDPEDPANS
MAGI2_5, Q86UL8, sequence (Q86UL8 915-1017): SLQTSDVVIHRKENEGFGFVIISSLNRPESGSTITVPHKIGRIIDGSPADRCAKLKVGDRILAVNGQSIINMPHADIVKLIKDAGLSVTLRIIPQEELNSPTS
PDLIM1, O00151, sequence (O00151 1-87): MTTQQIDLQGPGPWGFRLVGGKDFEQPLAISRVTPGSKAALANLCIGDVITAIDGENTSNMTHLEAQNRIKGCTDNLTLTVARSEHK
LNX1_2, Q8TBB1, sequence (Q8TBB1 371-470): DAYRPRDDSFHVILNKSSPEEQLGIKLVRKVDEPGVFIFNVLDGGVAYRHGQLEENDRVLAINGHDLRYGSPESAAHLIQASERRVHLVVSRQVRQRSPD
FRMPD2_2, Q68DX3, sequence (Q68DX3 944-1038): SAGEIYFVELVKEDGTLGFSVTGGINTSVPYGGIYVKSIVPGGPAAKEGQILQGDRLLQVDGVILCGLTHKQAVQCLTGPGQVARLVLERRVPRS
Inadl_6, Q8NI35, sequence (Q8NI35 1058-1167): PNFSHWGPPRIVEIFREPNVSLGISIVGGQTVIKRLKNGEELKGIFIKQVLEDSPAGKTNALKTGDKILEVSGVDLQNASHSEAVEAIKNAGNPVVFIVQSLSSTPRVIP
Inadl_9, Q8NI35, sequence (Q8NI35 1530-1615): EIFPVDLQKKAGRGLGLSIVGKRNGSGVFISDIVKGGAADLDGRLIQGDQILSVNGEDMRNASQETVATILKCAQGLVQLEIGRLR
GRID2IP_1, A4D2P6, sequence (A4D2P6 1-87): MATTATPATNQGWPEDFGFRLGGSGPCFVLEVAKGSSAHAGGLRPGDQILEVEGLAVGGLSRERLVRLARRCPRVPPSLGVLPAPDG
CASK, O14936, sequence (O14936 487-570): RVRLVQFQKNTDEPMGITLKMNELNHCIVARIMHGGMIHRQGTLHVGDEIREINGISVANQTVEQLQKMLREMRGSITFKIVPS
ARHGEF12, Q9NZN5-2, sequence (Q9NZN5 other isoform, or with tags, fused parts or gaps): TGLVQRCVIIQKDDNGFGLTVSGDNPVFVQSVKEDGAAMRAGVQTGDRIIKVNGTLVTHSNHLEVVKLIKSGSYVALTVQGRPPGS

- pKd (MPDZ_12, O75970; [1]): below the threshold
- pKd (GRIP1_7, Q9Y3R0; [1]): below the threshold
- pKd (NHERF3_3, Q5T2W1; [1]): below the threshold
- pKd (MAGI1_1, Q96QZ7; [1]): below the threshold
- pKd (ARHGEF12, Q9NZN5-2; [1]): 3.71
- pKd (GRIP2_4, Q9C0E4; [1]): below the threshold
- pKd (GRID2IP_1, A4D2P6; [1]): below the threshold
- pKd (GRIP1_3, Q9Y3R0; [1]): below the threshold
- pKd (MAGI2_2, Q86UL8; [1]): below the threshold
- pKd (GRID2IP_2, A4D2P6; [1]): 4.28
- pKd (GRIP1_2, Q9Y3R0; [1]): below the threshold
- pKd (PDLIM1, O00151; [1]): below the threshold
- pKd (CARD11, Q9BXL7; [1]): below the threshold
- pKd (LNX2_3, Q8N448; [1]): below the threshold
- pKd (MAGI2_5, Q86UL8; [1]): 4.46
- pKd (LIMK2, P53671; [1]): below the threshold
- pKd (SIPA1L2, Q9P2F8; [1]): below the threshold
- pKd (IL16_1, Q14005; [1]): 4.17
- pKd (CASK, O14936; [1]): below the threshold
- pKd (FRMPD2_2, Q68DX3; [1]): 5.03
- pKd (LNX1_2, Q8TBB1; [1]): below the threshold
- pKd (Inadl_9, Q8NI35; [1]): below the threshold
- pKd (DFNB31_1, Q9P202; [1]): below the threshold
- pKd (NHERF4_4, Q86UT5; [1]): below the threshold
- pKd (RADIL, Q96JH8; [1]): below the threshold
- pKd (APBA2_2, Q99767; [1]): below the threshold
- pKd (Inadl_6, Q8NI35; [1]): 3.81
Binder: EDEDEQVSAV [RAPGEF2, Q9Y4G8]

- pKd (MPDZ_12, O75970; [2]): below the threshold
- pKd (GRIP1_7, Q9Y3R0; [2]): below the threshold
- pKd (NHERF3_3, Q5T2W1; [2]): below the threshold
- pKd (MAGI1_1, Q96QZ7; [2]): below the threshold
- pKd (ARHGEF12, Q9NZN5-2; [2]): 4.32
- pKd (GRIP2_4, Q9C0E4; [2]): below the threshold
- pKd (GRID2IP_1, A4D2P6; [2]): below the threshold
- pKd (GRIP1_3, Q9Y3R0; [2]): 3.66
- pKd (MAGI2_2, Q86UL8; [2]): below the threshold
- pKd (GRID2IP_2, A4D2P6; [2]): 3.7
- pKd (GRIP1_2, Q9Y3R0; [2]): 3.65
- pKd (PDLIM1, O00151; [2]): 4.29
- pKd (CARD11, Q9BXL7; [2]): below the threshold
- pKd (LNX2_3, Q8N448; [2]): below the threshold
- pKd (MAGI2_5, Q86UL8; [2]): below the threshold
- pKd (LIMK2, P53671; [2]): below the threshold
- pKd (SIPA1L2, Q9P2F8; [2]): below the threshold
- pKd (IL16_1, Q14005; [2]): 3.5
- pKd (CASK, O14936; [2]): below the threshold
- pKd (FRMPD2_2, Q68DX3; [2]): below the threshold
- pKd (LNX1_2, Q8TBB1; [2]): below the threshold
- pKd (Inadl_9, Q8NI35; [2]): below the threshold
- pKd (DFNB31_1, Q9P202; [2]): 3.84
- pKd (NHERF4_4, Q86UT5; [2]): below the threshold
- pKd (RADIL, Q96JH8; [2]): below the threshold
- pKd (APBA2_2, Q99767; [2]): below the threshold
- pKd (Inadl_6, Q8NI35; [2]): 3.93
Binder: CLDTSRETDL [KCNA5, P22460]

— article PMC9482650, “Quantitative fragmentomics allow affinity mapping of interactomes” (Nature Communications, 2022)
